# Measurements: the nanobody polyreactivity screen of Harvey et al. (2022)
# Test: yeast display, Sf9 membrane polyspecificity reagent, FACS + sequencing; frameworks hold sequencing errors
# Summary of the method: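 Galactose-induced (36–48 hours) yeast carrying a synthetic nanobody display library were exposed to 10% biotinylated, detergent-solubilized Sf9 membrane reagent at 4 °C for 1 hour. FACS followed streptavidin microbead enrichment, using low and high (top ~1%) gates for expression (anti-HA) and reagent binding (streptavidin). Colony PCR, MiSeq 2 × 250 sequencing and CDR-length filtering followed. Labels for polyreactivity reflect the gate of origin.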
row,Sequence,polyreactivity (PSR sort gate)
1,QVQLVESGGGLVQAGGSLRLSCAASGFTFGGNAMGWYRQAPGKEREFVAAITRSGGSTYYADSVKGRFTISRDNAKNTVYLQMHSLKPEDTAVYYCAARRSYPLGYDYWGQGTQVTVSS,high polyreactivity
2,QVQLVESGGGLVQAGGSLRLSCAASGFTFGGNTMGWYRQAPGKERELVAAITQGGSSTYYADSVKGRFTISRDNAKNTVYLQMNSLKPEDTAVYYCNRGSPFGGLRPYDYWGQGTQVTVSS,high polyreactivity
3,QVQLVESGGGLVQAGGSLRLSCAASGFTFGGYAMGWYRQAPGKERELVAAINWSGGSTDYADSVKGRFTISRDIAKNTVYLQMNSLKPEDTAVYYCAAEGQDGRFYWGQGTQVTVSS,low polyreactivity
4,QVQLVESGGGLVQAGGSLRLSCAASGFTFGGYAMGWYRQAPGKERELVAAISRSGGSTSYADSVKGRFTISRDNAKNTVYLQMNSLKPEDTAVYYCATLWTTKYWGQGTQVTVSS,high polyreactivity
5,QVQLVESGGGLVQAGGSLRLSCAASGFTFGGYAMGWYRQAPGKERGLVAAISGSGGRTYYADSVKGRFTISRDNAKNTVYLQMNSLKPEDTAVYYCAAETVTRSFYSEYDYWGQGTQVTVSS,low polyreactivity
6,QVQLVESGGGLVQAGGSLRLSCAASGFTFGGYAMGWYRQAPGKESEFVAAITGTGGNTFYADSVKGRFTISRDNAKNTVYLQMNSLKPEDTAVYYCAKTWYPWSRYGYYRRYDSWGQGTQVTVSS,low polyreactivity
7,QVQLVESGGGLVQAGGSLRLSCAASGFTFGHYVMGWYRQAPGKERELVAAITLSGGGTYYADSVKGRFTISRDNAKNTVYLQMNSLKTEDTAVYYCAAVRRAEEFDYWGQGTQVTVSS,low polyreactivity
8,QVQLVESGGGLVQAGGSLRLSCAASGFTFGLNVMGWYRQAPGKERELVAAISQSGGSTYYADSVKGRFTISRDNAKNTVYLQMNSLKPEDTAVYYCAVDYYPNPSYTVYDDEYWGQGTQVTVSS,low polyreactivity
9,QVQLVESGGGLVQAGGSLRLSCAASGFTFGLYAMGWYRQAPGKERELVAAITWSGGSTYYADSVKGRFTISRDNAKNTVYLQMNSLKPEDTAFYYCNRLSNNREYDYWGQGTQVTLSS,high polyreactivity
10,QVQLVESGGGLVQAGGSLRLSCAASGFTFGLYAMGWYRQAPGKERELVAVISSSGGSTYYADSVKGRFTISRDNAKNTVYLQMNSLTPEDTAVYYCAKDFEAGDDYFAYDYWGQGTQVTVSS,low polyreactivity
11,QVQLVESGGGLVQAGGSLRLSCAASGFTFGLYGMGWYRQAPGKERELVAAISSSGGDTYYADSVKGRFTISRDNAKNTVYLQMNSLKPEDTAVYYCAATADWATHDYWGQGTQVTVSS,low polyreactivity
12,QVQLVESGGGLVQAGGSLRLSCAASGFTFGLYGMGWYRQAPGKERELVAAISSSGGDTYYADSVKGRFTISRDNAKNTVYLQMNSLKPEDTAVYYCAATADWATYDYWGQGTQVTVSS,low polyreactivity
13,QVQLVESGGGLVQAGGSLRLSCAASGFTFGNAMGWYRQAPGKERELVAAITVNGGTTNYADSVKGRFTISRDNAKNTVYLQMNSLKPEDTAVYYCNVDTSYGAAGDYWGQGTQVTVSS,low polyreactivity
14,QVQLVESGGGLVQAGGSLRLSCAASGFTFGPYAMGWYRQAPGKERELVAGITWSGASTYYADSVKGRFTISRDNAKNTVYLQMNSLKPEDTAVYYCARYYRLGSRYDYWGQGTQVTVSS,low polyreactivity
15,QVQLVESGGGLVQAGGSLRLSCAASGFTFGRIAMGGYRQAPGKERELVASIDWSGGSTYYADSVKGRFTISRDNAKNTVYLQMNSLKPEDTAVYYCAVGPNSVGNRSYGFDYWGQGTQVTVSS,low polyreactivity
16,QVQLVESGGGLVQAGGSLRLSCAASGFTFGRYAMGWYRPAPGKERELVPAISFSGGRTYYADSVKGRFTISRDNAKNTVYLQMNCMKPEDTAVYYCAARRSEEHVGRSTYARYDYWGQGTQVTVSS,high polyreactivity

row,Sequence,polyreactivity (PSR sort gate)
1,QVQLVESGGGLVQAGGSLRLSCAASGFTFGRYAMGWYRQAPGKEREFVAGITWSGGSTSYADSVKGRFTISRDNAKNTVYLQMNSLKREDTAVYYSATRARYTRVHGRRYAYDYWGQGTQVTVSS,high polyreactivity
2,QVQLVESGGGLVQAGGSLRLSCAASGFTFGRYAMGWYRQAPGKERELVAAISRTGGRTYYADSVKGRFTISRDNAKNTVYLQMNSLKPEDTAVYYCAADKGGTYFNGDSWGQGTLVTVSS,high polyreactivity
3,QVQLVESGGGLVQAGGSLRLSCAASGFTFGRYARGWYRQAPGKERELVAAISRGGSSTYYADSVKGRFTISRDNAKNTVYLQMNSLKPEDTAVYYCNKVIIWARFDYWGQGTQVTVSS,high polyreactivity
4,QVQLVESGGGLVQAGGSLRLSCAASGFTFGSNAMGWYRQAPGKERELVAAISSGDSTHYADSVKGRFTISRDNAQNTVYLQMNSLKPEDTAVYYCNADNILYWSTLDYWGQGTQVTVSS,low polyreactivity
5,QVQLVESGGGLVQAGGSLRLSCAASGFTFGSNAMGWYRQAPGKERELVADITVSGGSTYYADSVKGRFTISRDNAKNTVYLQMNSLKPEDTAVYYCAKDPRTYLDYDYWGQGTQVNVSS,low polyreactivity
6,QVQLVESGGGLVQAGGSLRLSCAASGFTFGSNTMGWYRQAPGKERELVAAITTSGDSTYYADSVKGRFTISRDNAKNTVYLQMNSLKPEDTAVYYCAARTYYQGGYYYWGPGTQVTVSS,high polyreactivity
7,QVQLVESGGGLVQAGGSLRLSCAASGFTFGSYAMGWYRQAPGKERELVAAITYRGGSTYYADSVKGRFTISRDNAKNTVYLQMNSLKPEDTAVYYCAADSRRKGNYWGQGTQVTVSS,high polyreactivity
8,QVQLVESGGGLVQAGGSLRLSCAASGFTFGTYAMGWYRQAPGKERELVAAISARGGSTYYADSVKGRFTISRDNAKNTVYLQMNSLKPEDTAVYYCAAYYGRHVTPPTGYDYWGQGTQVTVSS,high polyreactivity
9,QVQLVESGGGLVQAGGSLRLSCAASGFTFGTYAMGWYRQAPGKERELVAAITDGGGSTYYADSVKGRFSISRDNAKNTVYLQMNSLKPEDTAVYYCAAEFGYGWYTWLTGNDYWGQGTQVTVSS,low polyreactivity
10,QVQLVESGGGLVQAGGSLRLSCAASGFTFGTYNMGWSRQAPGKERELVASISRRGGRTDYADSVKGRFTISRHNAKNTVYLQMNSLKPEDTAVYYCNAAYPYGGFPYDYWGQGTQVTVSS,high polyreactivity
11,QVQLVESGGGLVQAGGSLRLSCAASGFTFGVYAMGWYRQAPGKERELVAAISTTVGSTYYADSVKGRFTISRDNAKNTVYLEMNSLKPEDTAVYYCAAEYTGYINYYIYEYWGQGTQVTVSS,low polyreactivity
12,QVQLVESGGGLVQAGGSLRLSCAASGFTFGVYAMGWYRQAPGKERELVAAITATGGSTYYADSVKGRFTISRDNAKNTVYLQMNSLKPEDTAVYYCAADLDGTLSVYDYHTTGDDYWGQGTQVTVSS,low polyreactivity
13,QVQLVESGGGLVQAGGSLRLSCAASGFTFGVYAMGWYRQAPGKERELVAAITRSGGSTYYADSVKGRFTISRDNAKNTVYLQMNSLKPEDTAVYYCASRARDHYGYWGQGTQVTVSS,high polyreactivity
14,QVQLVESGGGLVQAGGSLRLSCAASGFTFGVYAMGWYRQAPGKERELVAAITWSGGRTYYADSVKGRFTISRDNAKNTVYLQMNSLKPEDTAVYYCAAVFYRYNAVRYDYWGQGTQVTVSS,high polyreactivity
15,QVQLVESGGGLVQAGGSLRLSCAASGFTFGVYAMGWYRQAPGKERELVATISSSGSTNYADSVKGRFTISRDNAQNPVYLQMNSLKPEDTAVYYCAVYYLYRRRQYYYWGQGTQVTVSS,low polyreactivity
16,QVQLVESGGGLVQAGGSLRLSCAASGFTFGWNAMGWYRQAPGKERELVAAITSGGITNYADSVKGRFTISRDNAKNTVYLQMNSLKPEDTAVYYCNARPTSRRSWYYWKGYDYWGQGTQVTVSS,high polyreactivity
